# Measurements published in paper PMC6431053, “Enzyme kinetics of dUTPase from the planarian Dugesia ryukyuensis” (BMC Research Notes, 2019).
# B1: Dr-dUTPase (Dugesia ryukyuensis; R66K) (protein)
# chain: MSALKVLRFKKLSENATVPSRGSVLAAGFDLCSAENCVIPARGKQLVKTDIQISLPEGCYGRVAPKSGLALKHFIDVGAGVIDQDYRGNVGIVMFNFSENEFPISKGDRIAQLICERIYTPELLECESLDETERGEGGYGSTGINNSSQKNGH
# notes: full-length 153 aa ORF, codon-optimized, pET-15b, E. coli BL21(DE3); His-tag cut by thrombin, N-terminal GSH left; 156 aa, 16,807 Da; R66K (G197A) removes internal thrombin site
# Tests used:
# purified protein [1] = substrate: Cc1cn([C@H]2C[C@H](O)[C@@H](COP(=O)(O)OP(=O)(O)OP(=O)(O)O)O2)c(=O)[nH]c1=O; assay: purified protein; assay type: biochemical, Dugesia ryukyuensis; conditions: 5 mM MgCl2, 100 mM KCl, 0.25 mM Bicine, pH 8.2, 100 µM nucleotide, 4–6 µM enzyme, n = 3
# purified protein [2] = substrate: O=c1ccn([C@H]2C[C@H](O)[C@@H](COP(=O)(O)OP(=O)(O)OP(=O)(O)O)O2)c(=O)[nH]1; assay: purified protein; assay type: biochemical, Dugesia ryukyuensis; conditions: 5 mM MgCl2, 100 mM KCl, 0.25 mM Bicine, pH 8.2, 25 °C, 10 µM dUTP, n = 7, kcat assumes three active sites per trimer, 25.0 °C
protein,measurement,setting,value
B1,Km,purified protein [1],1.1 × 10^2 ± 7.2 μM
same,kcat,purified protein [1],1.4 ± 0.3 s⁻¹
same,kcat/Km,purified protein [1],13000 ± 2800 M⁻¹ s⁻¹
same,Km,purified protein [2],4.0 ± 0.4 µM
same,kcat,purified protein [2],34 s⁻¹
same,kcat/Km,purified protein [2],8.5e+06 ± 1.1e+06 M⁻¹ s⁻¹
